Source: article doi:10.1101/2024.08.14.607909 (bioRxiv, 2024)

B1: C-terminal pentraxin domain of human PTX3 (domain or fragment)
chain: ELEGCETAILFPMRSKKIFGSVHPVRPMRLESFSACIWVKATDVLNKTILFSYGTKRNPYEIQLYLSYQSIVFVVGGEENKLVAEAMVSLGRWTHLCGTWNSEEGLTSLWVNGELAATTVEMATGHIVPEGGILQIGQEKNGCCVGGGFDETLAFSGRLTGFNIWDSVLSNEEIRETGGAESCHIRGNIVGWGVTEIQPHGGAQYVS
modifications: N-linked glycan at N220
B2: Δ1-24_PTX3 (PTX3 truncation mutant with residues 1-24 of the mature protein deleted) (domain or fragment, human)
chain: ELEDPTPCACGQEHSEWDKLFIMLENSQMRERMLLQATDDVLRGELQRLREELGRLAESLARPCAPGAPAEARLTSALDELLQATRDAGRRLARMEGAEAQRPEEAGRALAAVLEELRQTRADLHAVQGWAARSWLPAGCETAILFPMRSKKIFGSVHPVRPMRLESFSACIWVKATDVLNKTILFSYGTKRNPYEIQLYLSYQSIVFVVGGEENKLVAEAMVSLGRWTHLCGTWNSEEGLTSLWVNGELAATTVEMATGHIVPEGGILQIGQEKNGCCVGGGFDETLAFSGRLTGFNIWDSVLSNEEIRETGGAESCHIRGNIVGWGVTEIQPHGGAQYVS
modifications: N-linked glycan at N220

Columns and labels:
[1] = target: the molecule itself; assay: crystal structure
[2] = target: the molecule itself; assay: SEC-SAXS

Protein | binding result [1] | binding result [2]
B1 | binds | 
B2 |  | binds
